Series [1] in a line: Biodistribution of i.v. 111In-ST2210 after nebulised oxidized avidin. The following applies: nebulised 1 hour (about 90 mg/kg); 111In-ST2210 i.v. 24 h later; sacrifice after 2 or 24 hours. Type of series: in vivo, Balb/c mice. How it is done:
A biodistribution experiment aimed at determining the lung uptake selectivity and stability of ^111In-ST2210 was conducted. […] Twenty four hours after, all mice received ^111In-ST2210 intravenously (i.e., 1 μg in 0.2 ml of saline), and after further 2 or 24 hours, the animals were sacrificed by CO2 asphyxia. The lung and non target organs were collected weighed and counted in a gamma counter.

The nature of series [2]: Chemical integrity of oxidized avidin after nebulisation (HPLC). Format: physicochemical. The following applies: 3.0 mg/ml in 100 mM sodium acetate pH 5.5, nebulised 1 hour at room temperature. The text has this:
The particle size of the protein solution midst was 5 μm. The nebulised solution was recovered in a falcon tube and analyzed by HPLC.

Series [3] is described as follows: Immunohistochemistry of lung sections with anti-avidin antibody after aerosol exposure. Type of series: in vivo, Balb/c mice. The following applies: 24 hours after aerosol exposure. How it is done: The lungs were removed and fixed in formalin and paraffin embedded. Serial sections obtained by means of a microtome were processed and incubated with a HRP-conjugated rabbit anti-avidin antibody (GeneTex, USA) and then with DAB substrate.

Series [4] in a line: Uptake of i.v. 111In-ST2210 in lung and non target organs 24 h after inhalation exposure.
Protocol: Twenty Sprague Dawley rats were divided in three different groups.
All rats were sacrificed 2 hours after the i.v. administration of ^111In-ST2210, and samples of blood, spleen, kidney, liver, stomach, brain, trachea, and tissue samples of different portions of lung were collected, weighed and analyzed with the use of a gamma-counter (Perkin Elmer). Data were expressed as the % of injected dose/gram of tissue (% ID/g).
A short description of series [5]: Linkage of instilled oxidized avidin to surgically lesioned bladder, PET with i.v. 68-Ga-ST2210. Format: in vivo, pig. The conditions noted are these: 1 h instillation, PET 4 h after 68-Ga-ST2210 i.v. How it is done:
Anesthetised female pig of about 40 kg was subjected to surgery to generate two 2 cm superficial lesions on the bladder wall. […] Bladder was then washed with saline and 0.5 μg 68-Ga-ST2210 was i.v. administered. After 4 hours the pig was subjected to PET.

The nature of series [6]: PET imaging of i.v. 64Cu-ST2210 after nebulised oxidized avidin. Type of series: in vivo, Balb/c mice. The conditions noted are these: 64Cu-ST2210 1 μg i.v. 24 h after aerosol; PET 4 hours after. The method, then:
After 24 hours, they received an intravenous 1 μg dose of ^64Cu-ST2210. ^64Cu-ST2210 distribution was examined by PET imaging 4 hours after. […] Kidneys, bladder are visible in both groups of mice. This observation is consistent with the physiological elimination of ST2210 at that time point.

A further series has as its system A431 cells. In words: Inhibition of proliferation, Cell Titer Glow assay. Type of series: cell-based, Human. The conditions noted are these: oxidized avidin alone compared with medium only (data not shown). The method, then:
Proliferation inhibition was measured by Cell Titer Glow assay, Promega.
On the technique in general: In ATP-based viability assays light output follows the ATP content of the culture.

Consider “Oxidized avidin: chemically oxidized avidin according to example 1 of WO2009016031, about 8 to 15 aldehyde moieties”, for which, in series [1], the “uptake of 111In-ST2210 in the lung” value is “specific and significant uptake”. The “HPLC elution profile pre and post nebulisation” value in series [2] is “same elution profile”. For the same substance, in series [3], the “distribution of oxidized avidin in the lung” value is recorded as “homogenous in all lung compartments” and the “localisation of oxidized avidin in lung sections” value was “presence of oxidized avidin at broncho/epithelial level down to terminal bronchioles”. The “111In-ST2210 % ID/g Blood” value in series [4] (Blood, 2 h after i.v. 111In-ST2210, 24 h after inhalation (about 10 mg/kg)) is on record as 0.012 ± 0.004 % ID/g. Further, the “111In-ST2210 % ID/g Kidney” value in series [4] (Kidney, 2 h after i.v. 111In-ST2210, 24 h after inhalation) is 0.414 ± 0.033 % ID/g. In series [4] (Liver, 2 h after i.v. 111In-ST2210, 24 h after inhalation), the “111In-ST2210 % ID/g Liver” value was determined as 0.051 ± 0.005 % ID/g. The “111In-ST2210 % ID/g Lung dx (caudal lobe)” value in series [4] (Lung dx (caudal lobe), 2 h after i.v. 111In-ST2210, 24 h after inhalation) is reported as 0.055 ± 0.009 % ID/g. The “111In-ST2210 % ID/g Lung dx (cranial, middle and accessory lobe)” value in series [4] (Lung dx (cranial, middle and accessory lobe), 2 h after i.v. 111In-ST2210, 24 h after inhalation) was 0.055 ± 0.011 % ID/g. For the same substance, the “111In-ST2210 % ID/g Lung sn” value in series [4] (Lung sn, 2 h after i.v. 111In-ST2210, 24 h after inhalation) was determined as 0.053 ± 0.008 % ID/g. Further, the “111In-ST2210 % ID/g Lung” value in series [4] (Lung, 2 h after i.v. 111In-ST2210, 24 h after inhalation) worked out at 0.054 ± 0.009 % ID/g. Besides, the “111In-ST2210 % ID/g Spleen” value in series [4] (Spleen, 2 h after i.v. 111In-ST2210, 24 h after inhalation) turned out to be 0.032 ± 0.002 % ID/g. The “111In-ST2210 % ID/g Stomach” value in series [4] (Stomach, 2 h after i.v. 111In-ST2210, 24 h after inhalation) was determined as 0.276 ± 0.246 % ID/g. Further, in series [4] (Trachea, 2 h after i.v. 111In-ST2210, 24 h after inhalation), the “111In-ST2210 % ID/g Trachea” value amounted to 0.029 ± 0.007 % ID/g. Also, the “organ linkage of nebulised oxidized avidin” value in series [4] (lung versus trachea) is listed as “bound to the lung but not to the trachea”. Also, the “binding to bladder tissue” value in series [5] (intact bladder tissue) is on record as “completely inert”. Besides, in series [5] (region subjected to surgery), the “binding to bladder tissue” value is “enabled the binding of oxidized avidin”. Also, the “64Cu-ST2210 PET signal in the lungs” value in series [6] was “presence of a radioactive signal in the lungs”. The “effect on cell proliferation” value in the series on A431 cells was “did not affect cell proliferation”.

These data come from patent US9872831B2 (ALFASIGMA S.P.A., priority 2011, dated 2018).
